Data reported in paper PMC10397247.

Key:
Assay in all cases: two-hybrid library CCmax;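 note: natural log of median RNA to DNA barcode read ratio; higher means stronger binding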
[1] = target: T1, 4H140-AA
T1 chain: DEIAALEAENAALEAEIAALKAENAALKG

[2] = target: T2, 4H1802-AA; conditions: mean of both orientations
T2 chain: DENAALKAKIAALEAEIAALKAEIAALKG

[3] = target: T3, 4H2600-AA; conditions: mean of both orientations
T3 chain: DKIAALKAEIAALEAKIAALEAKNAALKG

[4] = target: T4, 4H2721-AA; conditions: mean of both orientations
T4 chain: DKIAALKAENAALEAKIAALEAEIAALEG

[5] = target: T5, 4H2750-AA; conditions: mean of both orientations
T5 chain: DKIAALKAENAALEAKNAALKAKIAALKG

[6] = target: T6, 4H2898-AA; conditions: mean of both orientations
T6 chain: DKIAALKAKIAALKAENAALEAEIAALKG

[7] = target: T7, 4H3020-AA; conditions: mean of both orientations
T7 chain: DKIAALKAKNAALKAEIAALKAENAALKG

[8] = target: T8, 4H3365-AA; conditions: mean of both orientations
T8 chain: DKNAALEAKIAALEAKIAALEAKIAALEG

[9] = target: T9, 4H355-AA; conditions: mean of both orientations
T9 chain: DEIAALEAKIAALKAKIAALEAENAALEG

[10] = target: T10, 4H3651-AA; conditions: mean of both orientations
T10 chain: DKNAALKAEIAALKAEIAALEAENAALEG

[11] = target: T11, 4H3705-AA; conditions: mean of both orientations
T11 chain: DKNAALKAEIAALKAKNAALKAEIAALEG

[12] = target: T12, 4H3782-AA; conditions: mean of both orientations
T12 chain: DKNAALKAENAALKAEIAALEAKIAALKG

[13] = target: T13, 4H465-AA; conditions: mean of both orientations
T13 chain: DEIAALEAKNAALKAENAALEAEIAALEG

[14] = target: T14, 4H486-AA; conditions: mean of both orientations
T14 chain: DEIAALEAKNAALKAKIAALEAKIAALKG

[15] = target: T15, 4H535-AA; conditions: mean of both orientations
T15 chain: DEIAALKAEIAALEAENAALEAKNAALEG

[16] = target: T16, 4H58-AA; conditions: mean of both orientations
T16 chain: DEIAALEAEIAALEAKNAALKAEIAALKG

[17] = target: T17, 4H895-AA; conditions: mean of both orientations
T17 chain: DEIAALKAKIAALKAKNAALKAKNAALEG

[18] = target: T18, 4H_APH; conditions: mean of both orientations
T18 chain: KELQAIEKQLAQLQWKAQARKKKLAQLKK

[19] = target: T19, 4H_BCR; conditions: mean of both orientations
T19 chain: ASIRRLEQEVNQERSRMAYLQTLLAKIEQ

[20] = target: 4H_GCN4
Chain of 4H_GCN4 (chain, as listed by the source): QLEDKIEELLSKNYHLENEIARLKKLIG

[21] = target: GCN2_T; conditions: mean of both orientations

B1: 4H140-AA (peptide)
chain: DEIAALEAENAALEAEIAALKAENAALKG
interaction score [1]: 1.28 | interaction score [2]: -1.67 | interaction score [3]: -1.83 | interaction score [4]: -1.25 | interaction score [5]: -0.883 | interaction score [6]: -0.325 | interaction score [7]: 2.23 | interaction score [8]: -1.08 | interaction score [9]: -1.06 | interaction score [10]: -1.02 | interaction score [11]: 1.36 | interaction score [12]: -0.5 | interaction score [13]: -1.51 | interaction score [14]: -0.379 | interaction score [15]: -1.56 | interaction score [16]: 1.01 | interaction score [17]: -1.44 | interaction score [18]: -2.79 | interaction score [19]: -1.18 | interaction score [20]: -0.95 | interaction score [21]: -1.08
